The supplement of paper PMC10567573

B1: KRT13 (parent)
chain: KTIEELRDKILTATIENNRVILEI

Variants of: B1
Assay: protein stability index of a GFP-peptide fusion (GPS, HEK-293T) (PSI 1-6); higher = more stable
Conditions: c terminus: a fixed tail appended
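Further: lentivirally expressed fusions sorted by FACS into six bins by GFP to DsRed ratio, PSI derived from sequencing read proportions per bin multiplied by bin number.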

Protein stability index of substitutions, site by site:
L6: Q 1.89, R 2.56, N 1.31, E 1.85, C 3.04, D 1.92, T 2.46, K 2.32, I 2.5, Y 3.18, M 1.98, H 3.32, V 2.23, P 1.48, G 1.47, A 1.94
I10: S 2.2, H 2.12, M 2.3, G 1.69, Y 3.2, R 2.31, L 1.47, Q 1.54, N 1.78, E 2, D 1.73, W 3.93, T 1.43, F 3.07, P 2.7, C 2.28, K 1.55, V 1.75, A 2.17
N18: G 2.33, K 3.44, H 2.65, E 3.06, D 2.18, I 2.9
T2: D 2.88, C 2.92, M 2.73, L 2.35, W 3.4, N 2.12, A 2.31, K 2.6, Q 3.17, H 1.86, E 1.63
E4: D 3.39, S 3.44, M 1.7, R 3.26, V 2.4, A 1.85, I 2.6, H 3.82, F 3.99, L 4.03, T 3.39
A13: N 2.31, K 1.67, H 2.38, Q 1.81, P 1.87, V 3, T 1.92, W 2.81, G 3.86, L 2.61, D 1.53, R 3.35, M 1.08, S 3.69, C 2.5
T14: G 4.63, M 2.52, E 2.77, D 2.57, V 1.02, H 2.53, R 2.59, C 3.4, Q 2.99, P 2.52, A 4.11, N 3.03, L 1.71
E5: K 2.95, W 2.82, Y 4.43, Q 2.38, I 3.5, P 3.07, G 2.46, V 1.83, M 4.08, A 2.6, R 2.13
N17: G 3.5, T 3.19, I 1.73, C 3.65, V 1.59, L 1.78, Q 3.06, P 3.1, K 2.4, D 2.84, M 2.57, E 2.73
L11: E 1.92, C 2.33, S 2.68, Q 2.72, H 1.52, F 2.34, A 1.3, Y 3.58, K 1.59, T 1.91, N 2.85, G 1.87, R 1.39, P 1.95, D 1.57, M 2.94
I3: D 1.67, E 2.13, Q 2.43, F 3.37, S 2.41, A 1.24, R 1.36, T 2.91, K 2.09, N 2.43, C 3.18, P 1.39, G 3.54
R7: T 2.16, N 2.38, F 1.85, P 1.15, I 2.6, A 2.27, M 2.07, K 1.51, L 3.71, Q 2.85, D 2.25, C 3.68
E16: D 3.13, G 2.38, C 2.33, M 2.72, H 2.52, W 3.31, Y 1.32, V 2.8, S 2.3, L 3.35, A 3.13, Q 3.1
